According to the DeepSol protein solubility set:

assay: soluble on expression in E. coli; label from the status in PepcDB or PDB records

Soluble on expression in E. coli, not soluble:
MGSDKIHHHHHHMMNTTETAPVLNPALEDEYSKALDEIKQFGEAQTHTVHDLGSATWAMRKLGELNKEDAEARKVVQANIDQLNEWLQHSLEARQSRRNYLEHEVLAYVANNRKHDPKYKLDTPYGKVSFTVKRKATPAISDETQVLNFIKSNWNESEQTQVIKRTEKVLVSELKKQVTVAGDKVIDEDGQPIPGMHVDPAGTETPHIKPIQMTEALS
MGSDKIHHHHHHMMPMDWEITFKGITYECINCAYCCSCKGWRIYLNYFDRLKLKDYEYAIEPCEGEFKYRLKVNEKGCVLLNNNLCRIHLEKGYEFKPLMCMIFPFSCMIKWDGTPLLIIKHYCSGIKKGKISKKVVNEAIELIKELYFDMFEEIIENGMEHSSKTEIFENFRVDWEEREDFGRYIFSSKTFDEMFERCREIFGNKINKLNLEEIDEIKNNLQRYNTKENEEEILRYLLELNRREHFRKLPFYREVNKLINIGNYLTKYKNVFKGEGEVDKKLFLNLK
MGSDKIHHHHHHMMSEEKILSVDFTQEDAYTEILPRSPLVSSYHAQWQGLRLDVHQQPGHETPEHSPQQHVLTVSLEQQIVRSERILDGRLQYENIAKGDVAIIPAQTRHISRWQSEAKFLVLSMEPAFFTRMVIEAGDLQKIEIKPRFAAPDPLIQQIGLALQTELESEHKGSSIYIESLTTTLCIHLLKHYCVTGGTILDDHHHKGLSHWKLRQAISYIHENLDQDLTLVDISTAVGMSMYYFSRQFKQSTGFAPHQYVMNCRIERAKKLLGSTNKTIEQICTQVGFQSQSHFTNVFRKLMGITPRVYREQVKT
MGSDKIHHHHHHMMSFREDKLLATNVPMRIVSLISKINEYKGKQVLYNQQAPEVLNTLKNVAIIQSTRASNSLEGITIKDTRLIDIMQNKVQPANRSEGEIAGYRDVLATIHSSYDAIPVKPSILLQFHRDLYRFISLEGGSWKNSDNAIEEVYPDGSKFVRFNPVSSFATPGAIEELCKFYNQYSNSGEIDSLMLISATILDFLCIHPFCDGNGRMARLLTLLLLYKEGYEVGRFISLEQIIEESKDAYYDTLYQSSQNWHEGKHDLLIWSEYLLGIILAAYKELMDRVGKVSRARGNKAMRVEETIDHFVSNFSINDIRRRCPDISPSTINRVLAKLRDANKIEVLGIGRGAKWKKNY
MGSDKIHHHHHHMNALPLVSVVVPNYNYKRYLNLRIQSILQQTYQNIELILLDDASTDGSEEVLSDYQDHAKVSHILLNEHNTGNPFKQWFKGMQLAKGKYIWIAEADDLCELTFLEKVVPLMEKYQQAAVCFAGSKYIDKDGNVLSYDMNKWKSAIPPYAVFNGKTYAEHNLYWRSYIANASSAIFRKSMVNAQNMEQCLQMRYSGDWLFWFYMAMQGDIIERYEVLNYFRQHNQKVTVKAENNGGGKSEDIEIVRIMEQHLTHLSRYKRCIRRGMLYNRIAKLSTTDRVKLQLWELLRQKLNGTRKDGRLERLNRIARLFCPFVLTMKRDRLTPSREIG
MGSDKIHHHHHHMNALRLEDLISVEMLQKVQDNFSAAVGIAMIIVDERGTPVTRPSNFSAFCQTIRTSAARRDQCFQCDDDGGRRAMAMGEPSIYQCHCGLVDFAAPIIVRDQYLGAVISGQVRLRQGHEVTLEYIAPPDESWRQDAHLIALREKITEIPYVKLRSAAYTLYHLAAYLVEESYSNAVSQELSAKNLKLMEESKRRVELEKSLREAELQALSYQVNPHFLFNVLNTIGRLALKEHAPKTEDMLYAFADMMRYVLKKSRSQIVSLQTEVGHVRNYLHIQKVRMGDRFTFTMDVPAKYDGILCPFMVLHPIVENSINYAIEPHEADGRIEITARDDGLNMILRVVDNGDGVSPELVRAALDGVAEPHGRTSIGLHNVDSRLRHFFGPDYGLTVESPATPGGRHGRRDALSPGLRSLRHLNACAEERRLCTALSLLKTRNSSARRCAPF
MGSDKIHHHHHHMNAQTPIRRPISLVLASPRGFCAGVDRAIQIVERAVEKFGAPVYVRHEIVHNRHVVDRLKALGAVFIEELEEAPDDRPVVFSAHGVPKSVPAEAKARQMIYLDATCPLVSKVHVEAQKHYDAGREIVLIGHAGHPEVIGTMGQLPEGAVTLIEDLKDAAAWEPKDAANVAFLTQTTLSVDDTADMVALLRERFPGIAAPHKEDICYATTNRQDAVKHLAEQSELILVVGSKNSSNSVRLKEVGLKAGARDAHLIDDASGIDWTWFDGISRVGLTAGASAPEDLVQGVIDAISARFDTTVEELVEARETITFKLPRLLTA
MGSDKIHHHHHHMNAVPQWRLAGDWFDICSCDIPCPCEFAQRPTGNHCQGVLAWHVREGQYGDVKLDGLTLVALGEFEGNLWAGEAKAVMGMYLDEKANESQREALQAIFGGHAGGWPAGFAANVGEMRGMEFVPITFEVAGDLATWRVEIPGLVVGRVEALSGPTTPPGKRVQTINPPGSEVGPGQVATWGRSVEVSTKGFGLDWIGTARSSKHIPFDWTGPS
MGSDKIHHHHHHMNDFEEYIRQSEPHKREKGYAWQTAIGLQAVDGLKPSEYLKEKARQHIEGDITIDEVKQLVDSYYKSKVARSSSEDRTEEADKVSARITEILSENTFTFSPIEYLAIHRHLFEGIFSHAGQIRDYNITKNEWVLKGATVLYASAGSIRETLEYDFSQEKIFDYKNLNIDEAIRHIARFVSGIWQIHAFGEGNTRTTAVFTIKYLHTFGFNFSNETFANHSWYFRNALVRANYNDLTKGVYATTEFLEKFFRNLILNEQNELKNRNLQIDEIEKEAIQSAKQTDMDIPKCKNCTLDCTLEEIAVLNYLKEKPNATQKEIAQHIGKSERTVKSMTVNLSERGIIERKNGRRNGFWEIKK
MGSDKIHHHHHHMNEIRVSSWPALHEVLYGESWNPRLGRFRSPFVFRGQSRAEAKLTTTLQRLSGETREIERHLLRNFRKYAYRNGMDRDLPWYWLAVGQHHGLPTRLLDWTTSPLVALHFATAEEDHYSQDGVVWMVNFIRTNERLPAPLKALLEQEGADVFTVDMLTAFSRAHRSQQMPELGQQPSFDLSWLEDLEREAEHPFLLFLEPPSIDERIVQQAALFSLLSDPEAALDDWLVQHPGTAHKVILPADLKWEIRDKLDQSNITERTLFPGLGGLSQALRRYYRVGRDPSQQQGATAEEQAQEMERQN
MGSDKIHHHHHHMNFEIPQSLIHPLLALIQAESPLARQLREHGVCHGNMVVSARLFDAQSLSSLYTLSKAQNERELLFQMLALDNIYNAPQARTIPGLEMLVAGLIAYLSRDAIDGWLYQRSRDGVLLPWLVQRIRHVEPEQGMPYVAIDMLANTMLSANSEQTDPTRRRSGMTTSIIVTRDEIVDRTIPELLAEFGFFKECAEFRREYEIHAQRFVRYQRSFGAQFIATRAGFTVEGKNTVALARIADGVTARCINDEERLERRFEMNCDAEFWRRAGVVSGFEKVPLHGYVHLFHLEWHQNIWVHVQHLSEYKYRPELRDKLVLPDHHRDLIDILTSHMDVLVQDFVPGKSGGTTILCQGAPGLGKTLTAEIYAEVVGKPLYRVHSGQLGTTAASVGATLMEILRRAMRWNAVLLLDEADVYIRRRDNDLEHNAIVAEFLRTLEYFSGLLFMTTNRTGDVDDAILSRCIATIQYETPCREDAARLWRLQADQCGVSLQDELVDALTAAYPKASGRDIKELMKLATRYSEAKQIALSEDVFRLCAQFRAIE
MGSDKIHHHHHHMNFEKIEQAYDLLLENVQTIQNQLGTNIYDAMIEQNAAYVANQHETDLVVNNNQTLKQLDLTKEEWRRAYQFLLIKANQTEPMQYNHQFTPDSIGFILSFLVDQLVPTQKVTVLEIGSGTGNLAQTILNASQKDLDYLGIEVDDLLIDLSASIADVMQADISFAQGDAVRPQILKESQVILGDLPIGYYPDDQIASRYQVASPNEHTYAHHLLMEQSLKYLEKDGFAILLAPNDLLTSPQSDLLKGWLQEQANIVAMIALPPNLFGKAAMAKSIFVLQKKAARSLTPFVYPLQSLQEPEAIQKFM
MGSDKIHHHHHHMNFEVLVKHISTIQNTLQAQAAHAVNLALTSRNWLMGCYIVEFEQNGEDRAAYGEQLLKKLEQRLKTKGLNERRFREFRRLYLVYPQLKESVTQYIASQIQIRQSLTAEFTEPIRRLVTAESENGVWKLSTEHPQTETWMIPADRLFNRLSSTHLNTISGIENPIKRAFYEMETIRGCWSVKELERQIASLYYERSGLSKNKEALSALVQQQVTLLQPKDVINTPVTLEFLGLNERALVTENDLEQSILDNLQHFLLEMGHGFCFEARQKRILIDEDYFFADLVFYHRILKCHIIVELKIDKFRHEYASQLNMYLNYFKAEVMQPDDNPPIGILLCTEKGDTLVKYATAGLDPNIFVQKYMIELPSEEEIKRFILGVNF
MGSDKIHHHHHHMNGKLQSSDVKNETPYNIPLLINENVISSGISLISLWHTYADEHYRVIWPRDKKKPLIANSWVAVYTVQGCGKILLKNGEQITLHSNCIIFLKPMDIHSYHCEGLVWEQYWMEFTPTSMMDIPVGQQSVIYNGEIYNQELTEVAELITSPEAIKNNLAVAFLTKIIYQWICLMSADGKKDPQRRQIEKLIATLHASLQQRWSVADMAATIPCSEAWLRRLFLRYTGKTPKEYYLDARLDLALSLLKQQGNSVGEVADTLNFFDSFHFSKAFKHKFGYAPSAVLKNTDQHPTDASPHN
MGSDKIHHHHHHMNGQPLIQVSDFEGPLDLLLHLIKTNEMDIYDIRISTITSQYLTYLHQMQLVRLDVAGEYFVMAANLMAIKAKLLLPKPQSVVPVDEDEPADPREELVNQLLEYQRYKQAAQALKQRALERQQHFTRPAMAVPESVELTVAPGIKPVDLQTALVRLMQRATLAKPVTQSVHQEHFTIKRQMTTILQRLKGTTAPVAFEQLLVTHPVMEEVVTTFLAVLELARQRQVQLQQAGRLAPLQVNFLQMEGRFSTDVTSSTD
MGSDKIHHHHHHMNILVDLTQIPIQKVGVGVYAKETFKFPNEDANELFFLLQDDDNDLRSTFLKSKIILVKSKFFRFFFCRFLLEQFYIPFLCYKYKINILHSLHYSFPIFLFKVKRIVTIHDLTFFIHPSVHTFIKRYYFRLFIKLACRYADRLICVSESTKKDLERICGRRSVSIDVIPLSCSPKMQVGEQELELVKKKFGVVSQYMLFIGTLEPRKNILNLINAFYKFSQKNRDYSLVIIGKKGWFYESIFKLVEELHLERSVVFTGFVTTKEKFILLSGAHSFIYPSIYEGFGLPVLEAITYGIPTITSKLSSLPEVAGNAALYINPYDVQSISDAIESVNCDEETRRKLIKNSEKQRLKYSWKKTANLTYSLYNRCGSI
MGSDKIHHHHHHMNIQDLRYFHELVNLKSYTKTAEKFGVSQPTITAAVKRLENRFGGTFLIRDQPHKSIIITRLGVQFDEHVQSILNEINIVEEEIKQNQNASIPFGLPPIIGRNYFPKIVSQLFAKGLLHRLNVIENGSYDLYHLLLEGYINFSMLGLTKVNVEPGIKLEVVKSYPMCIVVSKTHPLATKKAISFKEIANENFIGLSSDYIHTKALDRMLKKSKINLNTIYRSPDVTVVKNIVAQNLGISYLTTLSITENDDVISIPLLDKDQPKFILAAATRENHIMTDAEEEFWEILTQISLRRQVLTSTLPS
